# Experimental data reported in article PMC10703879.
# What was measured:
# [1] = biological target: BCMAECD-Fc (dimerized, Fc-tagged human BCMA extracellular domain) (human) (UniProt Q02223); experiment: SPR; heterogeneous ligand, second site (KD2); conditions: VHH
# [2] = biological target: BCMAECD-His (monomeric, His-tagged human BCMA extracellular domain) (human) (UniProt Q02223); experiment: SPR; heterogeneous ligand, second site (KD2); conditions: VHH
# [3] = biological target: BCMAECD-Fc (dimerized, Fc-tagged human BCMA extracellular domain) (human) (UniProt Q02223); experiment: SPR; heterogeneous ligand, first site (kd1); conditions: VHH
# [4] = biological target: BCMAECD-His (monomeric, His-tagged human BCMA extracellular domain) (human) (UniProt Q02223); experiment: SPR; heterogeneous ligand, first site (kd1); conditions: VHH
# [5] = biological target: BCMAECD-Fc (dimerized, Fc-tagged human BCMA extracellular domain) (human) (UniProt Q02223); experiment: SPR; heterogeneous ligand, second site (kd2); conditions: VHH
# [6] = biological target: BCMAECD-His (monomeric, His-tagged human BCMA extracellular domain) (human) (UniProt Q02223); experiment: SPR; heterogeneous ligand, second site (kd2); conditions: VHH
# [7] = biological target: BCMAECD-Fc (dimerized, Fc-tagged human BCMA extracellular domain) (human) (UniProt Q02223); experiment: SPR; heterogeneous ligand, first site (KD1); conditions: VHH
# [8] = biological target: BCMAECD-Fc (dimerized, Fc-tagged human BCMA extracellular domain) (human) (UniProt Q02223); experiment: SPR; Biacore 8K, 25 °C, 10 mM HEPES pH 7.4, 150 mM NaCl, 0.05% Tween 20; BCMAECD-Fc immobilised by amine coupling on CM5; nanobodies as analytes (five two-fold dilutions); Langmuir model for Nb1 and Nb2, heterogeneous ligand model for NbT
# [9] = biological target: BCMAECD-His (monomeric, His-tagged human BCMA extracellular domain) (human) (UniProt Q02223); experiment: SPR; Biacore 8K, 25 °C, 10 mM HEPES pH 7.4, 150 mM NaCl, 0.05% Tween 20; BCMAECD-His immobilised by amine coupling on CM5; nanobodies as analytes (five two-fold dilutions); Langmuir model for Nb1 and Nb2, heterogeneous ligand model for NbT
# [10] = biological target: BCMAECD (synthesized extracellular domain of human B-cell maturation antigen, residues 1-54) (human) (UniProt Q02223); experiment: AUC; sedimentation velocity; complexes formed by mixing nanobody with excess BCMAECD (molar ratio 1:4, overnight at 4 °C); 1 mg/ml, 45,000 rpm, 20 mM Tris pH 8.0, 100 mM NaCl, 4 °C
# Sequence of BCMAECD (synthesized extracellular domain of human B-cell maturation antigen, residues 1-54) (human) (Q02223 1-54): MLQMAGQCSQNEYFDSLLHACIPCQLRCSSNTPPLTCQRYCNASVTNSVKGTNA
# Sequence of BCMAECD-Fc (dimerized, Fc-tagged human BCMA extracellular domain) (human) (Q02223 1-54): as above
# Sequence of BCMAECD-His (monomeric, His-tagged human BCMA extracellular domain) (human) (Q02223 1-54): as above
Kd [1],Kd [2],koff [3],koff [4],koff [5],koff [6],Kd [7],KD of the higher-affinity site (heterogeneous ligand model) [8],KD of the stronger site (heterogeneous ligand model) [9],stoichiometry N (NbT per BCMAECD (printed 2 to 4)) [10],Substance
3.54 nM,4.27 nM,3.28e-05 s⁻¹,0.000118 s⁻¹,0.0133 s⁻¹,0.0191 s⁻¹,0.00361 nM,,,,"NbT (cilta-cel nanobody tandem, Nb1 and Nb2 in tandem)"
,,,,,,,0.0036 nM,0.011 nM,0.5,"NbT (cilta-cel nanobody tandem, Nb1 and Nb2 in tandem) (VHH)"
